Assay [1] addresses T1, human NgR1 (Homo sapiens, UniProt Q9BZR6).
T1 sequence (Q9BZR6 27-447): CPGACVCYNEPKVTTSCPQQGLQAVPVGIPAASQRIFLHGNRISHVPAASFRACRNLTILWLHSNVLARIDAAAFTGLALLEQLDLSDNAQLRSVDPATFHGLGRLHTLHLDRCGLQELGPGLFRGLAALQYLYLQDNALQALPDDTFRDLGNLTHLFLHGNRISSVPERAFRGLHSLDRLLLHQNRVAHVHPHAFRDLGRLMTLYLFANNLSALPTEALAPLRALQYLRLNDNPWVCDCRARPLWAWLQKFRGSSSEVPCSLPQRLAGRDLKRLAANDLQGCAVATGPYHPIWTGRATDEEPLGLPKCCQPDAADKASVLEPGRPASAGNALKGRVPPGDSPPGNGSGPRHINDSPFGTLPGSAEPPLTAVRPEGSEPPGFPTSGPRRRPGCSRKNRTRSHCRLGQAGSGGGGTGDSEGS
Description: Antibody binding to human Nogo receptor-1.

In assay [2] the test system is DRG neurons. The assay is described as follows: Neurite outgrowth assay on CNS myelin (Example 5). Format: cell-based. Conditions: P3-4 rat DRG; 15 μg/ml mAb 7E11. As to the method: To test the ability of the monoclonal and Fab-phage antibodies produced above to lessen the inhibitory effect of CNS myelin on neurons, Lab-Tek® culture slides (4 wells) were coated with 0.1 mg/ml poly-D-lysine (Sigma®). CNS myelin or PBS was spotted as 3 μl drops. Fluorescent microspheres (Polysciences) were added to the myelin/PBS to allow later identification of the drops (Grandpre et al, Nature 403, 2000). Lab-Tek® slides were then rinsed and coated with 10 μg/ml laminin (Gibco™). Dorsal root ganglions (DRG's) from P3-4 Sprague Dawley rat pups were dissociated with 1 mg/ml collagenase type 1 (Worthington), triturated with fire-polished Pasteur pipettes pre-plated to enrich in neuronal cells and finally plated at 23,000 cells/well on the pre-coated Lab-Tek® culture slides. The culture medium was F12 containing 5% heat inactivated donor horse serum, 5% heat inactivated fetal bovine serum and 50 ng/ml MNGF and incubated at 37 °C and 5% CO2 for 6 hours. Fifteen μg/ml of mAb 7E11 was added immediately after plating.
Slides were fixed for 20 minutes with 4% paraformaldehyde containing 20% sucrose and stained for the neuronal marker anti beta-III-tubulin (Covance TUJ1) diluted 1:500. […] 5× digital images were acquired with OpenLab™ software and analysed by using the MetaMorph® software for quantification of neurite outgrowth.

Assay [3] concerns the target T2, OM-gp + sNogoR344-Fc (Rattus norvegicus, UniProt Q99M75, A303T/C287S/C43R/E284G/T53A).
T2 construct: amino acid residues 26-344 of rat Nogo receptor-1; made in house
T2 sequence (Q99M75 26-344 C43R/T53A/E284G/C287S/A303T): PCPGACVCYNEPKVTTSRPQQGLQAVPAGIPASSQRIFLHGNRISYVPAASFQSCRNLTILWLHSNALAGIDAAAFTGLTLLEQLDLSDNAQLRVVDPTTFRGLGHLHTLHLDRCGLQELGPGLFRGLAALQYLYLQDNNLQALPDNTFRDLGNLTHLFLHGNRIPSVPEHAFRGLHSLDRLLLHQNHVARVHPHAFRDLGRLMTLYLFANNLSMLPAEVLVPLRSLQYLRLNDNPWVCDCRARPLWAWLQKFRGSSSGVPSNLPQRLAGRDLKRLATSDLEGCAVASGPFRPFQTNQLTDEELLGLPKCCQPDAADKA
The assay is described as follows: mAb/Fab inhibition of OM-gp binding to sNogoR344-Fc (ELISA). On the procedure: 0.5 μg of a soluble Nogo receptor-1 fusion protein comprising amino acid residues 26-344 of rat Nogo receptor-1 and the hinge and Fc region of the rat IgG1 molecule (sNogoR344-Fc) produced as described below was immobilized on 250 μg of protein-A- or wheatgerm agglutinin-conjugated SPA beads (Amersham Pharmacia Biotech) for 2 hours at 25° C. SPA beads coupled with Fc-sNogoR-1, anti-Nogo receptor-1 mAb and 1 μl ^125I-Nogo66 (Amersham, 2000 Ci/mmol, 1 nM) in 50 μl of the HEPES-buffered incubation medium (10 mM HEPES, pH 7.4, 0.1% bovine serum albumin, 0.1% ovalbumin, 2 mM MgCl2, 2 mM CaCl2 and protease inhibitors) was added to each sample well. After 16 hours, radioactivity was measured in quadruplicate samples using a TopCount® (Packard). IC50 values were calculated from a curve-fit analysis (FIG. 3) (PRISM, GraphPad Software, NJ). In some experiments, we also used AP-ligand conjugates (e.g. AP-Nogo66) and detected binding by monitoring alkaline phosphatase activity. We also assayed the ability of the mAbs to block binding of the ligands MAG-Fc and AP-OM-gp to Nogo receptor-1.
The calculated IC50 for Nogo66 for 7E11 and 1H2 were 400 nM and 60 nM, respectively. The data from ELISAs monitoring mAb-mediated inhibition of binding of the three ligands to Nogo receptor-1 are summarized in Table 6.
We also performed ELISA binding assays using the Fab-phage 14D5.
(In general: An ELISA detects its analyte on a solid surface through an enzyme-linked reagent.)

Assay [4] concerns the target T3, mouse NgR3 (Mus musculus, UniProt Q8K0S5).
T3 sequence (Q8K0S5 25-424): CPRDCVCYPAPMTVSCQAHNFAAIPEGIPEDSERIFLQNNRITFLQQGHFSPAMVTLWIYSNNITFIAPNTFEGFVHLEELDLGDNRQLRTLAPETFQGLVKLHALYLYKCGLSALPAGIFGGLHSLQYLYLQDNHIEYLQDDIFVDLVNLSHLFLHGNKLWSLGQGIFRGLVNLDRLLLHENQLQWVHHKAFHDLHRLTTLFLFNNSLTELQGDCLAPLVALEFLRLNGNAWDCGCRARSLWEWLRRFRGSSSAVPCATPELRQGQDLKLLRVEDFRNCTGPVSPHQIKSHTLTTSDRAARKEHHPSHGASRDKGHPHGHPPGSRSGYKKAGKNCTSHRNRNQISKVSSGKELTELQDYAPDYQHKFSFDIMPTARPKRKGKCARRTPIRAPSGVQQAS
The assay is described as follows: Antibody binding to mouse Nogo receptor-3. The following applies: species not stated.

The target in assay [5] is T4, rat NgR1 (Rattus norvegicus, UniProt Q99M75).
T4 sequence (Q99M75 27-447): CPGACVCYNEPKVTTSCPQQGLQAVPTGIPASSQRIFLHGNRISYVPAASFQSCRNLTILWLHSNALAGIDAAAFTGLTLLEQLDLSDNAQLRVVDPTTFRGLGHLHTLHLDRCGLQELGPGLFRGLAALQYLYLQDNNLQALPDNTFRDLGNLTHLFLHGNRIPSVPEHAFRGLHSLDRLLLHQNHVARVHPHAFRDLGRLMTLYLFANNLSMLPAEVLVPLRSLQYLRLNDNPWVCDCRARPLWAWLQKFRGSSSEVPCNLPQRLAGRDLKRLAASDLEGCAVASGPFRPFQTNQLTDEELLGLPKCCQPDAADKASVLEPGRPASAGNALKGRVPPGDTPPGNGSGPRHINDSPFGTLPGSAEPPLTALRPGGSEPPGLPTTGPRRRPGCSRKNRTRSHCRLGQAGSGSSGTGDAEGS
Description: Antibody binding to rat Nogo receptor-1.

“Also recorded” adds a separate entry of the source.

B1: 7E11: murine monoclonal anti-Nogo receptor-1 antibody, IgG1 kappa, ATCC PTA-4587; immunogen rat Nogo receptor-1 residues 110-125 (antibody, V domains shown)
VH: VQLQESGAELVMPGASVKMSCKASGYTFTDYWMHWVKQRPGQGLEWIGAIDPSDSYSSYNQNFKGKATLTVDGSSSTAYMQLSSLTSEDSAVYYCARRITEAGAWFAYWGQGTTVT
VL: DVVMTQTPLSLPVSLGDQASISCRSSQSLVHSNGNTYLHWYLQKPGQSPKLLIYKVSNRFSGVPDRFSGSGSGTDFTLKISRVDAEDLGVYFCSQSTHVPFTFGGGTKLEIKRADAAPTVSISHH
For orientation: EC50 means the concentration that produces a half-maximal response. For the molecule B1, in assay [1], the “binding to human NgR1” value is “bound; also recorded: binds well”. Besides, in assay [2], the “protection from myelin-mediated inhibition of neurite outgrowth” value is “protected”. The “inhibition of binding of OM-gp to sNogoR344-Fc” value in assay [3] is listed as “inhibited binding”. Moreover, the EC50 in assay [3] (curve-fit analysis) was 150 nM. Also, the “binding to NgR3” value in assay [4] is “does not bind well”. Besides, in assay [5], the “binding to rat NgR1” value is given as “bound; also recorded: binds well”.

The record behind these values is US20080274112A1, “Nogo Receptor Antagonists” (priority 2003, published 2008).
